Measured values taken from IntAct's records for PubMed 25416956.

B1: EF-hand domain-containing protein 1 (Homo sapiens), Q5JVL4 (parent)
chain: MVSNPVHGLPFLPGTSFKDSTKTAFHRSQTLSYRNGYAIVRRPTVGIGGDRLQFNQLSQAELDELASKAPVLTYGQPKQAPPADFIPAHVAFDKKVLKFDAYFQEDVPMSTEEQYRIRQVNIYYYLEDDSMSVIEPVVENSGILQGKLIKRQRLAKNDRGDHYHWKDLNRGINITIYGKTFRVVDCDQFTQVFLESQGIELNPPEKMALDPYTELRKQPLRKYVTPSDFDQLKQFLTFDKQVLRFYAIWDDTDSMYGECRTYIIHYYLMDDTVEIREVHERNDGRDPFPLLMNRQRVPKVLVENAKNFPQCVLEISDQEVLEWYTAKDFIVGKSLTILGRTFFIYDCDPFTRRYYKEKFGITDLPRIDVSKREPPPVKQELPPYNGFGLVEDSAQNCFALIPKAPKKDVIKMLVNDNKVLRYLAVLESPIPEDKDRRFVFSYFLATDMISIFEPPVRNSGIIGGKYLGRTKVVKPYSTVDNPVYYGPSDFFIGAVIEVFGHRFIILDTDEYVLKYMESNAAQYSPEALASIQNHVRKREAPAPEAESKQTEKDPGVQELEALIDTIQKQLKDHSCKDNIREAFQIYDKEASGYVDRDMFFKICESLNVPVDDSLVKELIRMCSHGEGKINYYNFVRAFSN
B2: Keratin, type II cytoskeletal 6A (Homo sapiens), P02538 (parent)
chain: MASTSTTIRSHSSSRRGFSANSARLPGVSRSGFSSVSVSRSRGSGGLGGACGGAGFGSRSLYGLGGSKRISIGGGSCAISGGYGSRAGGSYGFGGAGSGFGFGGGAGIGFGLGGGAGLAGGFGGPGFPVCPPGGIQEVTVNQSLLTPLNLQIDPTIQRVRAEEREQIKTLNNKFASFIDKVRFLEQQNKVLETKWTLLQEQGTKTVRQNLEPLFEQYINNLRRQLDSIVGERGRLDSELRGMQDLVEDFKNKYEDEINKRTAAENEFVTLKKDVDAAYMNKVELQAKADTLTDEINFLRALYDAELSQMQTHISDTSVVLSMDNNRNLDLDSIIAEVKAQYEEIAQRSRAEAESWYQTKYEELQVTAGRHGDDLRNTKQEIAEINRMIQRLRSEIDHVKKQCANLQAAIADAEQRGEMALKDAKNKLEGLEDALQKAKQDLARLLKEYQELMNVKLALDVEIATYRKLLEGEECRLNGEGVGQVNISVVQSTVSSGYGGASGVGSGLGLGGGSSYSYGSGLGVGGGFSSSSGRAIGGGLSSVGGGSSTIKYTTTSSSSRKSYKH
partner: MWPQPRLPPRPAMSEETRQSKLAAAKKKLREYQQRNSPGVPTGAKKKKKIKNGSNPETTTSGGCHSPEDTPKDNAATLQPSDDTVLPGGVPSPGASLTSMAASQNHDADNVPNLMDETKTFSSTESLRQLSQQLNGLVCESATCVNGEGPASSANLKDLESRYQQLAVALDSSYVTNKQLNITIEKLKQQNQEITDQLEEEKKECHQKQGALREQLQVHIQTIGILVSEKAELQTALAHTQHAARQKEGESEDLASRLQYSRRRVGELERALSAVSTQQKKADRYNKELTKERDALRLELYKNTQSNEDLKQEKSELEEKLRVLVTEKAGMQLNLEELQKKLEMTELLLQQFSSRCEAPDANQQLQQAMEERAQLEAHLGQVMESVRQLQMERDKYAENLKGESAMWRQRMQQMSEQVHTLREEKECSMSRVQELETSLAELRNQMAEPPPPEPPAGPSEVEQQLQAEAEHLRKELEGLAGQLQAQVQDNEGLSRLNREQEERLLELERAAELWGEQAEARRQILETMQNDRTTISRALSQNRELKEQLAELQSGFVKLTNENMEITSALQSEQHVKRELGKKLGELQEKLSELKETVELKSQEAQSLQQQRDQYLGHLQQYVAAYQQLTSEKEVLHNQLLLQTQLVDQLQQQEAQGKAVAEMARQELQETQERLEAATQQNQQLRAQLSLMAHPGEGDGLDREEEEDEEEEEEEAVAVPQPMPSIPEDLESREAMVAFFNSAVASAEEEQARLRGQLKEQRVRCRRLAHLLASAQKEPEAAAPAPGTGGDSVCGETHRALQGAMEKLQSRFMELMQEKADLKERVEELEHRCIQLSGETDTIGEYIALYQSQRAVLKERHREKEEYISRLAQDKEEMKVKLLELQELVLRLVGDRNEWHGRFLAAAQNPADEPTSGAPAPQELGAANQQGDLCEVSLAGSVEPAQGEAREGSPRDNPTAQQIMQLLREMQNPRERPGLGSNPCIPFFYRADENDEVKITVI
B3: Keratin, type II cytoskeletal 2 epidermal (Homo sapiens), P35908 (parent)
chain: MSCQISCKSRGRGGGGGGFRGFSSGSAVVSGGSRRSTSSFSCLSRHGGGGGGFGGGGFGSRSLVGLGGTKSISISVAGGGGGFGAAGGFGGRGGGFGGGSSFGGGSGFSGGGFGGGGFGGGRFGGFGGPGGVGGLGGPGGFGPGGYPGGIHEVSVNQSLLQPLNVKVDPEIQNVKAQEREQIKTLNNKFASFIDKVRFLEQQNQVLQTKWELLQQMNVGTRPINLEPIFQGYIDSLKRYLDGLTAERTSQNSELNNMQDLVEDYKKKYEDEINKRTAAENDFVTLKKDVDNAYMIKVELQSKVDLLNQEIEFLKVLYDAEISQIHQSVTDTNVILSMDNSRNLDLDSIIAEVKAQYEEIAQRSKEEAEALYHSKYEELQVTVGRHGDSLKEIKIEISELNRVIQRLQGEIAHVKKQCKNVQDAIADAEQRGEHALKDARNKLNDLEEALQQAKEDLARLLRDYQELMNVKLALDVEIATYRKLLEGEECRMSGDLSSNVTVSVTSSTISSNVASKAAFGGSGGRGSSSGGGYSSGSSSYGSGGRQSGSRGGSGGGGSISGGGYGSGGGSGGRYGSGGGSKGGSISGGGYGSGGGKHSSGGGSRGGSSSGGGYGSGGGGSSSVKGSSGEAFGSSVTFSFR
partner: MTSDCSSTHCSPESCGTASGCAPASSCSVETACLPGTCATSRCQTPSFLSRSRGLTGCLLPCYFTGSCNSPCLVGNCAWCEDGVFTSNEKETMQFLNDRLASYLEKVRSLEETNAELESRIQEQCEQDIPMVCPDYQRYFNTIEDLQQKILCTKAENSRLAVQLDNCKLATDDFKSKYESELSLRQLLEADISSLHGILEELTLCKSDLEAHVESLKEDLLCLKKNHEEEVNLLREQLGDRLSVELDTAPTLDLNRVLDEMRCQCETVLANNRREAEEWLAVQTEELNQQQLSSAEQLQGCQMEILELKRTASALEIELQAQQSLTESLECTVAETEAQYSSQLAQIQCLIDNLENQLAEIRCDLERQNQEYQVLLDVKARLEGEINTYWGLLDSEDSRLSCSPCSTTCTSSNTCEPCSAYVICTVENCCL
B4: Chorion-specific transcription factor GCMb (Homo sapiens), O75603 (parent)
chain: MPAAAVQEAVGVCSYGMQLSWDINDPQMPQELALFDQFREWPDGYVRFIYSSDEKKAQRHLSGWAMRNTNNHNGHILKKSCLGVVVCTQACTLPDGSRLQLRPAICDKARLKQQKKACPNCHSALELIPCRGHSGYPVTNFWRLDGNAIFFQAKGVHDHPRPESKSETEARRSAIKRQMASFYQPQKKRIRESEAEENQDSSGHFSNIPPLENPEDFDIVTETSFPIPGQPCPSFPKSDVYKATCDLATFQGDKMPPFQKYSSPRIYLPRPPCSYELANPGYTNSSPYPTLYKDSTSIPNDTDWVHLNTLQCNVNSYSSYERSFDFTNKQHGWKPALGKPSLVERTNHGQFQAMATRPYYNPELPCRYLTTPPPGAPALQTVITTTTKVSYQAYQPPAMKYSDSVREVKSLSSCNYAPEDTGMSVYPEPWGPPVTVTRAASPSGPPPMKIAGDCRAIRPTVAIPHEPVSSRTDEAETWDVCLSGLGSAVSYSDRVGPFFTYNNEDF
partner: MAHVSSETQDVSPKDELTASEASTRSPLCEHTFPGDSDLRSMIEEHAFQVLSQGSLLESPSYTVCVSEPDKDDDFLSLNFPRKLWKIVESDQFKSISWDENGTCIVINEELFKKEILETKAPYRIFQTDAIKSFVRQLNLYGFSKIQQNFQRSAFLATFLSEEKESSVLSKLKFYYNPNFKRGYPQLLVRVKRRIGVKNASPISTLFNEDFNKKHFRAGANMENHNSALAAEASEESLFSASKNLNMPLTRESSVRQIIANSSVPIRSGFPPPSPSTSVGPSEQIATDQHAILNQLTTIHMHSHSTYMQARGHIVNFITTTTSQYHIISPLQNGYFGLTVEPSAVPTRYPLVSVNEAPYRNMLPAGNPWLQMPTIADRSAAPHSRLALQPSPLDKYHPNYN
B5: Serotonin N-acetyltransferase (Homo sapiens), Q16613 (parent)
chain: MSTQSTHPLKPEAPRLPPGIPESPSCQRRHTLPASEFRCLTPEDAVSAFEIEREAFISVLGVCPLYLDEIRHFLTLCPELSLGWFEEGCLVAFIIGSLWDKERLMQESLTLHRSGGHIAHLHVLAVHRAFRQQGRGPILLWRYLHHLGSQPAVRRAALMCEDALVPFYERFSFHAVGPCAITVGSLTFMELHCSLRGHPFLRRNSGC
B6: Beta-crystallin A4 (Homo sapiens), P53673 (parent)
chain: MTLQCTKSAGPWKMVVWDEDGFQGRRHEFTAECPSVLELGFETVRSLKVLSGAWVGFEHAGFQGQQYILERGEYPSWDAWGGNTAYPAERLTSFRPAACANHRDSRLTIFEQENFLGKKGELSDDYPSLQAMGWEGNEVGSFHVHSGAWVCSQFPGYRGFQYVLECDHHSGDYKHFREWGSHAPTFQVQSIRRIQQ
partner: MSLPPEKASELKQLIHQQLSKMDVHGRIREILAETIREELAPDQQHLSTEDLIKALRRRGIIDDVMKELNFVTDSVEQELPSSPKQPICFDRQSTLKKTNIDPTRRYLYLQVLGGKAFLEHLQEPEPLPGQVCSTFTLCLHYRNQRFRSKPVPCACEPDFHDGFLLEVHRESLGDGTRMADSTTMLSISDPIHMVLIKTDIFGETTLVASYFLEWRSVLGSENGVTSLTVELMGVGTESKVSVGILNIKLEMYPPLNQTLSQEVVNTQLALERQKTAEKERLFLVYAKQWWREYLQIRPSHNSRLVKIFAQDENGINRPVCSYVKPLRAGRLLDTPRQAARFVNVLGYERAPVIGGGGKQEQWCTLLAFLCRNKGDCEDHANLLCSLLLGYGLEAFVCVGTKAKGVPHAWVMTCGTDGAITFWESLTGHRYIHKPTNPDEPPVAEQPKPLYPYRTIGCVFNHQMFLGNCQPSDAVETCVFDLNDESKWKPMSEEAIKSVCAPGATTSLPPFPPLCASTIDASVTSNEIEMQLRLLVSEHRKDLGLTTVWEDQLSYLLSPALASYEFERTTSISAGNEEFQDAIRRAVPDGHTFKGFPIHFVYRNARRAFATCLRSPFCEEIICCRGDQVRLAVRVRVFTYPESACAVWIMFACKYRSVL
B7: Fructose-1,6-bisphosphatase 1 (Homo sapiens), P09467 (parent)
chain: MADQAPFDTDVNTLTRFVMEEGRKARGTGELTQLLNSLCTAVKAISSAVRKAGIAHLYGIAGSTNVTGDQVKKLDVLSNDLVMNMLKSSFATCVLVSEEDKHAIIVEPEKRGKYVVCFDPLDGSSNIDCLVSVGTIFGIYRKKSTDEPSEKDALQPGRNLVAAGYALYGSATMLVLAMDCGVNCFMLDPAIGEFILVDKDVKIKKKGKIYSLNEGYARDFDPAVTEYIQRKKFPPDNSAPYGARYVGSMVADVHRTLVYGGIFLYPANKKSPNGKLRLLYECNPMAYVMEKAGGMATTGKEAVLDVIPTDIHQRAPVILGSPDDVLEFLKVYEKHSAQ
partner: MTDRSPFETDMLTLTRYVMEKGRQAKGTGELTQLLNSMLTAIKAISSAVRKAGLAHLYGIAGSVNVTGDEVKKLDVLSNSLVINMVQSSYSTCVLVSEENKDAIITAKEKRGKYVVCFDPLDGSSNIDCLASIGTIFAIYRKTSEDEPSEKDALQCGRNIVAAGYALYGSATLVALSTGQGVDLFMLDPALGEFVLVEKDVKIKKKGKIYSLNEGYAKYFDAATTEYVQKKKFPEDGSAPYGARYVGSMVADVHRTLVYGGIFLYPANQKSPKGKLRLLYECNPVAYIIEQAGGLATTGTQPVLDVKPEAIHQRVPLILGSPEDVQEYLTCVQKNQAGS
B8: Keratin, type II cytoskeletal 6A (Homo sapiens), P02538 (parent)
chain: B2 chain
partner: B3 partner

Variants of: B1
Details: with itf2_human TCF4, P15884
Chain of itf2_human TCF4, P15884 (P15884 whole entry): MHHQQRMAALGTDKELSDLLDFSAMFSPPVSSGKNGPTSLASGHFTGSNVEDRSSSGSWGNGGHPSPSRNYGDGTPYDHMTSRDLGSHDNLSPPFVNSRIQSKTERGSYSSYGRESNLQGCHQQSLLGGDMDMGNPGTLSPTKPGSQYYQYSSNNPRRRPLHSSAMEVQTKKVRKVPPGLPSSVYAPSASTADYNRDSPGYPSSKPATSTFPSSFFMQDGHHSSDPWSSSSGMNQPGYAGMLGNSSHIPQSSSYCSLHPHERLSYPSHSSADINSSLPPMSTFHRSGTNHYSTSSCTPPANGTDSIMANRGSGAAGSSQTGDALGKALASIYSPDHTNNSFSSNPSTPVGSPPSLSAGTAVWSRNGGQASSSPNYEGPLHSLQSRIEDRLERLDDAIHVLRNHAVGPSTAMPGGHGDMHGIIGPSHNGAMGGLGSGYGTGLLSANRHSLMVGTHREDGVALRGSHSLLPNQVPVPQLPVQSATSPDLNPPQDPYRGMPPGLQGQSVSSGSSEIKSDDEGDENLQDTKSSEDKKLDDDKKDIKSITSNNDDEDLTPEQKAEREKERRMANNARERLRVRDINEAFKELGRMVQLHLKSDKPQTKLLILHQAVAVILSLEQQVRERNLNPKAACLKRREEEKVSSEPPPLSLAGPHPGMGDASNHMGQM

effect of a mutation on the interaction	Variant
disrupting interaction	R221H

Variants of: B1
Details: with ikzf3_human IKZF3, Q9UKT9
Chain of ikzf3_human IKZF3, Q9UKT9 (Q9UKT9 whole entry): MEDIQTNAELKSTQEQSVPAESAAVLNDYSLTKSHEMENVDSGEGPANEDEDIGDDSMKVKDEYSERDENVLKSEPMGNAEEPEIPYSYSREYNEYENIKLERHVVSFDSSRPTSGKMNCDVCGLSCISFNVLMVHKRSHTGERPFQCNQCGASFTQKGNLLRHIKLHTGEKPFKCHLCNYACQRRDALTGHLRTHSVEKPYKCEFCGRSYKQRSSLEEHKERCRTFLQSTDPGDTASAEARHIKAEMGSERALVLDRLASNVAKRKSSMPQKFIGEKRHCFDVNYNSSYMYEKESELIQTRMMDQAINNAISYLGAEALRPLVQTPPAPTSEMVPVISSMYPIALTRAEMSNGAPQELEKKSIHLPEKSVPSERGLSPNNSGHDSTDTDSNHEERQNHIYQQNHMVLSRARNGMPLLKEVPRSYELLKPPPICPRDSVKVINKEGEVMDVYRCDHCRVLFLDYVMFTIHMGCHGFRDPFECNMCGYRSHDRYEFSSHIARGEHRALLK

effect of a mutation on the interaction	Variant
disrupting interaction	R221H

Variants of: B1
Details: with itf2_human TCF4, P15884
Remark: another data set of the same source

effect of a mutation on the interaction	Variant
disrupting interaction	P77T

Variants of: B1
Details: with ikzf3_human IKZF3, Q9UKT9
Remark: another data set of the same source

effect of a mutation on the interaction	Variant
disrupting interaction	P77T

Variants of: B1
Details: with itf2_human TCF4, P15884
Remark: another data set of the same source

effect of a mutation on the interaction	Variant
disrupting interaction	T508R

Variants of: B2
Details: with goga2_human GOLGA2, Q08379

effect of a mutation on the interaction	Variant
disrupting interaction	N171K

Variants of: B3
Details: with KRT40, Q6A162

effect of a mutation on the interaction	Variant
disrupting interaction	I477N

Variants of: B3
Details: with KRT40, Q6A162
Remark: another data set of the same source

effect of a mutation on the interaction	Variant
disrupting interaction	L484P

Variants of: B4
Details: with hsfy1_human HSFY1, Q96LI6

effect of a mutation on the interaction	Variant
disrupting interaction	R47L

Variants of: B4
Details: with hsfy1_human HSFY1, Q96LI6
Remark: another data set of the same source

effect of a mutation on the interaction	Variant
disrupting interaction	G63S

Variants of: B5
Details: with bhe40_human BHLHE40, O14503
Chain of bhe40_human BHLHE40, O14503 (O14503 whole entry): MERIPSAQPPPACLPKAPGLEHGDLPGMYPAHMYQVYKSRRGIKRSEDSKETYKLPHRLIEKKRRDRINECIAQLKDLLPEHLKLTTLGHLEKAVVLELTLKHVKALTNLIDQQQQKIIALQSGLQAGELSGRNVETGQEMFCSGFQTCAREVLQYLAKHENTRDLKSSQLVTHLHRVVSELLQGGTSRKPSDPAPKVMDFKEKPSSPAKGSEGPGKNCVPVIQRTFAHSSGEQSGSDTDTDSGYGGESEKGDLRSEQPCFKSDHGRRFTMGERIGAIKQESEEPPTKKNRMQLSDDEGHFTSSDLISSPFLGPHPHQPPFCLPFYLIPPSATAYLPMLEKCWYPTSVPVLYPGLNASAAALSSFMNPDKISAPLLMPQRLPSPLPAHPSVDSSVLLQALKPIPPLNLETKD

effect of a mutation on the interaction	Variant
disrupting interaction	A129T

Variants of: B6
Details: with cep76_human CEP76, Q8TAP6

effect of a mutation on the interaction	Variant
disrupting interaction	V36M

Variants of: B6
Details: with cep76_human CEP76, Q8TAP6
Remark: another data set of the same source

effect of a mutation on the interaction	Variant
disrupting interaction	F94S

Variants of: B6
Details: with cep76_human CEP76, Q8TAP6
Remark: another data set of the same source

effect of a mutation on the interaction	Variant
disrupting interaction	L69P

Variants of: B7
Details: with FBP2, O00757

effect of a mutation on the interaction	Variant
disrupting interaction	F194S

Variants of: B7
Details: with FBP2, O00757
Remark: another data set of the same source

effect of a mutation on the interaction	Variant
disrupting interaction	G260R

Variants of: B8
Details: with KRT40, Q6A162

effect of a mutation on the interaction	Variant
disrupting interaction	I462S

Variants of: B8
Details: with KRT40, Q6A162
Remark: another data set of the same source

effect of a mutation on the interaction	Variant
disrupting interaction	A463P
